Source: the nanobody polyreactivity screen of Harvey et al. (2022)

Assay: yeast display, Sf9 membrane polyspecificity reagent, FACS + sequencing; frameworks hold sequencing errors
Method in brief: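 Galactose-induced (36–48 hours) yeast carrying a synthetic nanobody display library were exposed to 10% biotinylated, detergent-solubilized Sf9 membrane reagent at 4 °C for 1 hour. FACS followed streptavidin microbead enrichment, using low and high (top ~1%) gates for expression (anti-HA) and reagent binding (streptavidin). Colony PCR, MiSeq 2 × 250 sequencing and CDR-length filtering followed. Labels for polyreactivity reflect the gate of origin.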

Row | Sequence | polyreactivity (PSR sort gate)
1 | QVQLVESGGGLVQAGGSLRLSCAASGIISGDYAMGWYRQAPGKERELVARITSGDSTNYADSVKGRFTISRDNAKNTVYLQMNSLKPEDTAVYYCAADRVWAYWTYGYWGQGTQVTVSS | low polyreactivity
2 | QVQLVESGGGLVQAGGSLRLSCAASGIIYGNVMGWYRQAPGKESELVAAITGSGGSTYYADSVKGRFTISRDNAKNTVYLQMNSLKPEDTAVYYCAADLALYNTLYLTLPDYYWGEGTQVTVSS | low polyreactivity
3 | QVQLVESGGGLVQAGGSLRLSCAASGIIYYGYAMGWYRQAPGKERELVAAISRSGGSTYYADSVKGRFTISRDNAKNTVYLQMNSLKPEDTAVYYCAASGVTYDYWGQGTQVTVSS | high polyreactivity
4 | QVQLVESGGGLVQAGGSLRLSCAASGIIYYGYVMGWYRQAPGKERELVATITSSGGSKYYADSVKGRFTISRDNAKNTVYLQMNSLKPEDTAVYYCAADYYYGAWVRHDYWGQCTQVTVSS | low polyreactivity
5 | QVQLVESGGGLVQAGGSLRLSCAASGILLFNAMGWYRQAHGKERELVAAINSGGSTNYADSVKGRFPISRDNAKNTGYLQMNSLKPEDTAVYYCAKDTPFTLRVWAEGGMDYWGQGTQVTVSS | low polyreactivity
6 | QVQLVESGGGLVQAGGSLRLSCAASGIMFSSYAMLWYRQAPGKERELFAAISWSGGSTYYADSVKLRFTISRDNAKNTVYLQMNSLKPEDTAVYYCAAKSHWYKRGYWGQGTQVTVSS | low polyreactivity
7 | QVQLVESGGGLVQAGGSLRLSCAASGINFESYVMGWYRQAPGKERELVARISYSGGSTYYADSVKGRFTISRDNAKNTVYLQMNSLIPEDTAVYYCNARYLFSGRYSRRMEYWGQGTQVTVSS | high polyreactivity
8 | QVQLVESGGGLVQAGGSLRLSCAASGINFFVYDMGWYRQAPGKERELVAAITWSGDSTYYADSVKGRFTISRDNAKNTVYLQINSLKPVDSAVYYCAAQFDVYYSRQPYDYNRSGYWGQGTQVTVSS | low polyreactivity
9 | QVQLVESGGGLVQAGGSLRLSCAASGINFGQNAMGWYRQAPGKERELVAAITISVGSTYYADSVKGRFTISRDNAKNTVYLQMNSLKPEDTAVYYCAARRVTWKVIARGYRYGYWGQGTQVTVTS | low polyreactivity
10 | QVQLVESGGGLVQAGGSLRLSCAASGINFGYYTMGWYRQAPGKDREFVAAITANGGRTYYADSVKGRFTLSRDNAKNTVYLKMNSLKPEDTAVYYCNARTYTYRGSFDYWVQGTQVTVSS | high polyreactivity
11 | QVQLVESGGGLVQAGGSLRLSCAASGINFNYYVMGWYRQAPGKERELVAAISRSGGRTRYADSVKGRFTISRDNAKNTVYLQMNSLKPEDTAVYYCAAVGSVNYDADFDYWGQGTQVTVSS | high polyreactivity
12 | QVQLVESGGGLVQAGGSLRLSCAASGINFRGYAMGWYRQAPGKERELVASITNTDSTYYADSVKGRFTISRDNAKNTVYLQMNSLKPEDTAVYYCAARRGRKYGYWGQGTQVTVSS | high polyreactivity
13 | QVQLVESGGGLVQAGGSLRLSCAASGINFTSYAMGWYRQAPGKERELVAAISSSGVRTYYADSVKGRFTISRDNAKNTVYLQMNSQKPEDTAVYYCATRRRVLYGYDYWGQGTQVTVSS | high polyreactivity
14 | QVQLVESGGGLVQAGGSLRLSCAASGINISWYAMGLYRQAPGKERELVAAISRRGGRTYYADSVKGRFTSSRDNAKNTVYLEMKSMLPEDTAVYYCAVVERQVPGPADGSVQVYYYWGQGTQVTGSS | high polyreactivity
15 | QVQLVESGGGLVQAGGSLRLSCAASGIPFYVKDMGWYRQAPGKDWDCVAAISYRGGSTYYADSVKGRFTISRDNAKNTVYLQMNSLKPEDTAVYYCAADYNYWSPHRDDYWGQGTQVTVSS | low polyreactivity
16 | QVQLVESGGGLVQAGGSLRLSCAASGISFERNGMGWYRQATGKERELVAAIRSGGSTYYADSVKGRFTISRDNAKNRVYVQMHSLKPEETAVYYCAAVTQGGYTDLGDYWGQGTQVTVSS | low polyreactivity
17 | QVQLVESGGGLVQAGGSLRLSCAASGISFGVYSLGWYRQAPGKERELVAAISSSGTSTYYADSVKGRFTISRDNAKNTVYLQMNSLKPEDTAVYYCAADYKRNQEVDYWGQGTQVTVSS | high polyreactivity
18 | QVQLVESGGGLVQAGGSLRLSCAASGITFAAYAMGWYRQAPGKERELVAAISTSGDSTYYADSVKGRFTISRDNAKNTVYLQMNSLKPEDTAVYYCAARAVRLSSSKVDYWGQGTQVTVSS | high polyreactivity
19 | QVQLVESGGGLVQAGGSLRLSCAASGITFAHYAMGWYRQAPGKERELVAVITSGGSTYYADSVKGRFTISRDNAKNTVYLQMNSLKPEDTAVYYCNRVPRRSIRYDYWGQGTQVTVSS | high polyreactivity
20 | QVQLVESGGGLVQAGGSLRLSCAASGITFAKYAMGWYRQAPGKESELVAAISSSGGRTYYADSVKGRFTISRDNAKNTVYLQMNSLKPEDTAVYYCAADFSGPFDYWGLGTQVTVSS | high polyreactivity
21 | QVQLVESGGGLVQAGGSLRLSCAASGITFALYAMGWYRQAPGKERELVAAISYSGGRTYYADSVKGRFTISRDNAKNTVYLQMNSLKPEDTAVYYCAAGGSGSGPYGYGYWGQGTQVTVSS | high polyreactivity
22 | QVQLVESGGGLVQAGGSLRLSCAASGITFAYNAMGSYRQAPGKERELVARITSGGRTYYADSVKGRFTISRDNAKNTVYLQMNSLKPEDTAVYYCNAKEGSRYRKYDYWGQGTQVTVSS | low polyreactivity

Row | Sequence | polyreactivity (PSR sort gate)
23 | QVQLVESGGGLVQAGGSLRLSCAASGITFAYYVMGWYRQAPGKERELVAAINWSGGSTYYADSVKGRFTISRDNAKNTVYLQMNSLKPEDTAVYYCAADWSTWYGEKFYWGHGTQVTVSS | high polyreactivity
24 | QVQLVESGGGLVQAGGSLRLSCAASGITFDENTMGWYRQATGKERELVASISNGGNTYYADSVKGRFTISRDNAKNTVYLQMNSLKPEDSAVYYCAARYGYYYSRYDHWGQGTQVTVSS | low polyreactivity
25 | QVQLVESGGGLVQAGGSLRLSCAASGITFDEYAMGWYIQAPGKERELVASISAGSTYYADSVKGRFTISRDNAKNTVYLQMNSLKPEDTAVYYCAVVVDYDAYRYWGYDYWGQGTQVTVSS | high polyreactivity
26 | QVQLVESGGGLVQAGGSLRLSCAASGITFDHYVMGWYRQAPGKERELVAAISRRGGSTYYADSVKGRFTISRDNAKNTVYLQMNSLKPEDTAVYYCAADSSKHIGYDSWGQGTQVTVSS | high polyreactivity
27 | QVQLVESGGGLVQAGGSLRLSCAASGITFDNNAMGWYRQAPGKEREFVADIDGSGGSTYYADSVKGRFTISRDNAKNTVYLLMNCLKPEDTAVYYCAVVVYYYTYHYWGQGTQVTVSS | low polyreactivity
28 | QVQLVESGGGLVQAGGSLRLSCAASGITFDSYAMGWYRQAPGKERELVATISRSGTTTYYADSVKGRFTISRDNAKNTGYLQMNSLKPEDTAVYYCNTLRDYWTYHFYGAVRDGYDYWGQGTQVTVSS | low polyreactivity
29 | QVQLVESGGGLVQAGGSLRLSCAASGITFDYYTMGWYRQAPGKERELVAGITRGGRTYYADSVKGRFTISRDNAKNTVYLQMNSLKPEDTAVYYCNADPWWRFDYWGQGTQVTVSS | low polyreactivity
30 | QVQLVESGGGLVQAGGSLRLSCAASGITFEPNDMGWYRQAPGKERELVAAISWSGGDTYYADSVKGRFTISRDNAKNTVYLQMNSLKPEDTAVYYCAAESWVAYEYWGQGTQVTVSS | low polyreactivity
31 | QVQLVESGGGLVQAGGSLRLSCAASGITFFGYALGWYRQAPGKERELVADITTSDSTYYADSVKGRFTISRDNAKNTVYLQMNSLKPEDTAVYYCNADYYDGGYGPGVEEYDYWGQGTQVTVSS | low polyreactivity
32 | QVQLVESGGGLVQAGGSLRLSCAASGITFFGYAMGWYRQAPGKERELVATISRSGGSTSYADSVKGRFTISRDNAKNTVYLQMNSLKPEDTAVYYCNNRTPYLRPIMDYWGQGTQVTVSS | high polyreactivity
33 | QVQLVESGGGLVQAGGSLRLSCAASGITFFLYGMGWYRQAPGKERELVAAISWSCASTYADSVKGRFTISRDNAKNTVYLQMNSLKPEDTAVYYCARDDNPIYSGVTYDYWGQGTQVTVSS | low polyreactivity
34 | QVQLVESGGGLVQAGGSLRLSCAASGITFFLYTMGWYRQAPGKERELVAAITWRGTSTYYADSVKGRFTISRDNAKNTVYLQMNSLKPEDTGVYYCAARSRRGGYPRYYYWGQGTQVTVSS | high polyreactivity
35 | QVQLVESGGGLVQAGGSLRLSCAASGITFFRYAMGWYRQAPGKERELVAAITTSGSSTFYADSVKGRFTISRDNAKNTVYLQMNSLTPEDTAVYYCATDYERYTWVGYLVTYYYWGQGTQVTVSS | high polyreactivity
36 | QVQLVESGGGLVQAGGSLRLSCAASGITFFWYDMGWYRQAPGKERELVASISSGGTTSYADSVKGRFTISRDNAKNTVYLQMNSLKPEDTAVYYCAATHWNRWHFDYWGQGTQVTVSS | low polyreactivity
37 | QVQLVESGGGLVQAGGSLRLSCAASGITFFYYAMGWYRQAPGKERELVAAINWSGRTYYADSVKGRFTISRDNAKNTVYLQMNSLKPEDTAVYYCAAVTYGPGVSGMDYWGQGTQVTVSS | low polyreactivity
38 | QVQLVESGGGLVQAGGSLRLSCAASGITFGANTMGWYRQAPGKERELVAAITISGGITHYADSVKGRFTISRDNAKNTVYLQMNRLKPEDTAVYYCAAGAYWRLYPYRQRNGGRMYYWGQGTQVTVSS | low polyreactivity
39 | QVQLVESGGGLVQAGGSLRLSCAASGITFGAYAMGWYRQAPGKERELVAVITRGADTYYADSVKGRFTISRDNAKNTVYLQMNSLKPEETAVYYCAAQIDLPYYYGSDDDDYWGQGTQVTVSS | high polyreactivity
40 | QVQLVESGGGLVQAGGSLRLSCAASGITFGDNARGWYRQAPGKERELVAAISSGGSTDYADSVKGRFTISRDNAKNTVYLQMNSLKPEDTAVYYCAVDWVSVPEYDYWGQGTQVTVSS | low polyreactivity
41 | QVQLVESGGGLVQAGGSLRLSCAASGITFGDNTMGWYRQAPGKERELVAAITYSSTSTYYADSVKGRFTISRDNAKNTVYLQMNSLKPEDTAVYYCAAEGPGDVVSTDYDYWGQGTQVTVSS | low polyreactivity
42 | QVQLVESGGGLVQAGGSLRLSCAASGITFGGNAMGWYRQAPGKEMELVAAISWNGGRTYYADSVKGRFTISRDNAKNTVYLQMNSLKPEDTAVYYCNTPVFSKSSRKYYYWGQGTQVTVSS | high polyreactivity
43 | QVQLVESGGGLVQAGGSLRLSCAASGITFGGYAMGWYRKARGKERELVAAISWRGGRTYYADSVKGRFTISRDNAKNTVYIQMNSLKPDDTAVYYCAVGGTVYSTESDYWGQGTQVTVSS | high polyreactivity
